According to the supplement of paper PMC6755084:

What follows are sequences tested on F1*sub RNA substrate (template-directed ligation) (assay: fraction ligated after 30 min (ligated reads / total reads); higher = more ligase activity; sequences stand for … in GAGACCGCAACTGAAAAGTTGT…AGTTCTGCACGTAGAAGCAAAAGGC). Conditions: 42 °C.
In short: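 Ligase ribozyme variants were made from oligo-pool templates by PCR amplification, T7 transcription and gel purification. After gel separation, ligated and unligated bands were reverse transcribed with barcoded primers and sequenced on a MiSeq, with core bases filtered at quality ≥20. The fraction ligated for each variant was the number of ligated reads divided by total reads.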

Sequence	fraction ligated
TATACTTTCGTAGACACTTTGGATGGGTTGA [3d799]	0.268
TACATGTCGTAAGACACTTTGGATGGGTTGA [3d547]	0.16
AACTTGTCGTAAGACACTTTGGATGGGTTGA [3d24]	0.293
TATCACTTGCGTAAGCACTTTGGATGGGTTA [3d1657]	0.812
ATCACTTGTCGTAAGACACTTTGGGGGTTGA [3d266]	0.0143
TATACTTGTCGTAAAACTTTGGATGGGTTGA [3d883]	0.799
TATCACTTGTCGTAAGCATTTGATGGGTTGA [3d2122]	0.408
TATCACTTTCGAAGACATTTGGATGGGTTGA [3d1498]	0.769
TATCACTTGTCAAGACACTTTGGATGGGTTA [3d1821]	0.781
TATACTGTGTAAGACACTTTGGATGGGTTGA [3d780]	0.8
TCACTGTCGTAAGACACTTTGGATGGGTTGA [3d5]	0.621
ATCACTTGTCGTAAGACACTTTGGATGTGGTTGA [s38]	0.693
TACACTTGTCGTAAAACTTTGGATGGGTTGA [3d672]	0.0463
TATCACTTGTGTAAGACACTTTGGGGGTTGA [3d1799]	0.0501
TATCCTTGTCGTAAGACCTTTGGATGGGTTA [3d1088]	0.347
TATCATTTCGTAAGACATTTGGATGGGTTGA [3d1148]	0.801
TTCACTGTCGTAAGACATTTGGATGGGTTGA [3d347]	0.755
TATCACTTGTCGTAAGACACTTTGAGGGTTG [3d2266]	0.00798
TATACTTTCGTAAGACACTTGGATGGGTTGA [3d805]	0.43
TATCACTTGTCGTAAGACCTTTGAGGGTTGA [3d2192]	0.0254
TATCACTGTCGTAAGACCTTTGATGGGTTGA [3d1427]	0.773
TACACTTGTCGTAAGACACTTTGATGGGTTGA [2d63]	0.194
TATCATTGTCGTAAGACATTTGGATGGGTTA [3d1267]	0.659

Sequence	fraction ligated
TATCACTTGTCGAAGACCTTTGATGGGTTGA [3d1944]	0.76
TATCACTTGTCTAAGACACTTGGATGGTTGA [3d1882]	0.12
TATACTTGTCGAAGACACTTTGGAGGGTTGA [3d866]	0.0186
TACACGTCGTAAGACACTTTGGATGGGTTGA [3d566]	0.266
TACCTTGTCGTAAGACACTTTGGATGGGTTA [3d545]	0.548
TATCCTTTCTAAGACACTTTGGATGGGTTGA [3d969]	0.796
TATCACTTGTCGTAGACCTTTGGAGGGTTGA [3d2024]	0.211
ATCACTTGCGTAAGACCTTTGGATGGGTTGA [3d147]	0.757
TATCACTTGTCGTAAGACATTTGATGGGTTGA [2d270]	0.291
TATCACTTGCGTAAGCACTTTGGATGGGTTG [3d1658]	0.832
TACACTTGTCGTAGACACTTTGGAGGGTTGA [3d668]	0.146
TATACTTGTCGTAAACACTTTGGATGGGTTGA [2d78]	0.493
TATCCTTGTCGTAAGACACTTGGATGGTTGA [3d1101]	0.0445
TATCACTTGTCTAAGACACTTTGGTGGTTGA [3d1892]	0.104
TTCACTTGTCGTAAGAACTTTGGATGGGTTGA [2d37]	0.748
TACACTGTCGTAAACACTTTGGATGGGTTGA [3d573]	0.181
TATACTTGTCGAAACACTTTGGATGGGTTGA [3d858]	0.756
ATCATTGTCGTAAGACCTTTGGATGGGTTGA [3d96]	0.717
TATCATTGTCGTAAGAACTTTGATGGGTTGA [3d1249]	0.545
TACACTTGTCGTAAGCACTTGGATGGGTTGA [3d685]	0.0451
ATCACTTTCGTAAGACACTTTGGATGGGTTA [3d138]	0.137
TATCACTTGTCGAAGACCTTTGGATGGGTTA [3d1948]	0.773
TACACTTGTCGTAAGACATTTGGAGGGTTGA [3d710]	0.0254

Sequence	fraction ligated
TATCACTTGTCGAACACTTTGGATGGGTTGA [3d1903]	0.802
TATCACTTGCGTAAGACACTTGATGGGTTGA [3d1682]	0.747
TTCACTTGTCGTAAGACACTTTGGATGGTTGA [2d44]	0.739
TATACTTGTCGTAAGCCTTTGGATGGGTTGA [3d894]	0.68
TATCACTTGCGTAAGACACTTTGATGGGTTA [3d1692]	0.138
TATACTTGTCGTAAGCACTTTGGATGGGTTA [3d901]	0.0196
TTCACTTTCGTAAGACACTTTGGATGGTTGA [3d368]	0.0816
TATCACTGTCGTAAGAATTTGGATGGGTTGA [3d1418]	0.804
TATCATTGTCGTAAGACACTTGGAGGGTTGA [3d1272]	0.183
TATCACTTGTCGTAGCACTTTGGAGGGTTGA [3d2009]	0.101
TATCACTTGTCTAGACACTTTGATGGGTTGA [3d1830]	0.739
TATCACTTGTCGAAGAACTTTGATGGGTTGA [3d1937]	0.796
TATCACTTGCGTAAGACACTTTGGTGGTTGA [3d1695]	0.0605
TATCACTGTCGTAACACTTTGGATGGGTTGA [3d1386]	0.826
TACACTTGCGTAAGACACTTTGGATGGGTTGA [2d52]	0.115
TATCACTGCGTAAGACACTTTGGATGGTTGA [3d1340]	0.15
TATCACTTGTCGAAAACTTTGGATGGGTTGA [3d1915]	0.798
ATCACTTGTCGTAAGACACTTGGATGGTTGA [3d257]	0.216
TATCACTTGTCTAAGAACTTGGATGGGTTGA [3d1857]	0.771
TATCACTTGTTAAGACACTTTGGATGGGTTA [3d1716]	0.778
TATCACTGTGTAAGACACTTTGGTGGGTTGA [3d1353]	0.0456
ATCCTTGTCGTAAGACACTTTGGATGGGTTGA [2d4]	0.744
TATCCTTGTCTAGACACTTTGGATGGGTTGA [3d1016]	0.763

Sequence	fraction ligated
TATCACTGCGTAAGACACTTTGGAGGGTTGA [3d1339]	0.0829
TTCACTTGTCGTAAGAACTTTGGTGGGTTGA [3d465]	0.019
TATCCTTGCGTAAGACACTTTGGATGGGTTG [3d999]	0.791
ATCACTTGTCGTAGACATTTGGATGGGTTGA [3d203]	0.731
TATCACTTCGTAAGACACTTGGATGGGTTGA [3d1320]	0.796
TATCACTGTCTAAGACACTTTGGATGGGTTA [3d1370]	0.762
TATCCTGTCTAAGACACTTTGGATGGGTTGA [3d953]	0.785
TATCACTTTCGTAAACACTTTGATGGGTTGA [3d1523]	0.768
TATCACTTGCGTAAGACCTTTGGAGGGTTGA [3d1670]	0.0866
TACACTTCGTAAGACACTTTGGATGGGTTGA [3d567]	0.0399
TATACTTGTCGTAAGACCTTGGATGGGTTGA [3d911]	0.777
ATACTTGTCGTAAGACCTTTGGATGGGTTGA [3d58]	0.412
TATCACTTGTGTAAGACACTTTGTGGGTTGA [3d1794]	0.00464
TTCACTTGCGTAGACACTTTGGATGGGTTGA [3d374]	0.736
TTACTTGTCGTAAGACACTTGGATGGGTTGA [3d291]	0.305
TATCACTTTCGTAAGCACTTTGGATGGGTTA [3d1537]	0.727
TATCACTTGCGTGACACTTTGGATGGGTTGA [3d1626]	0.829
TATCACTTTCGTAAGACACTTGGAGGGTTGA [3d1564]	0.085
TTCACTTGTCGAAGACACTTTGATGGGTTGA [3d423]	0.17
TACACTGTCGTAAGACCTTTGGATGGGTTGA [3d576]	0.752
TACACTTGTCGTAAGCACTTTGGTGGGTTGA [3d687]	0.114
TATCATTGTCGTAAGACCTTTGATGGGTTGA [3d1256]	0.778
TATCATTGTCGTAAGCACTTTGGAGGGTTGA [3d1243]	0.0203

Sequence	fraction ligated
TATCATTGTCGTAGACACTTTGGATGGGTTG [3d1226]	0.799
TATCACTTGTCGTAAGACACTTGGAGGGTTA [3d2249]	0.0115
TATCACTTGTCGTGACACTTTGATGGGTTGA [3d1987]	0.508
TATCACTTGTCGTAAGACACTTGGTGGGTTA [3d2246]	0.0114
TACTTGTCGTAAGACACTTTGGATGGGTTGA [3d2]	0.486
TATCTTGTCGTAAGACCTTTGGATGGGTTGA [3d749]	0.757
ATCACTGTCGTAAGACATTTGGATGGGTTGA [3d116]	0.719
ATCACTGTCGTAAACACTTTGGATGGGTTGA [3d112]	0.747
TATCACTTGTCTAAGACACTTTGGATGGGTTA [2d206]	0.803
TATCACTTGTCAAGACACTTTGGATGGGTTG [3d1822]	0.777
ATCACTTGTCGTAAGACACTTTGGATGGGTTGA [1d1]	0.781
TATACTTGTCGTAAGCACTTTGGAGGGTTGA [3d899]	0.0271
TATCACTTGTCGTAAGACACTTTGATGGTTG [3d2268]	0.0103
TATCACTGTCGTAAGACCTTTGGTGGGTTGA [3d1428]	0.441
TATCACTGTCGTAAGACTTTGGATGGGTTGA [3d1408]	0.856
TATCACTTGTCGTAAGACTTTGGATGGGTTA [3d2112]	0.792
TATCACTTGTCGTAAGACACTTTGGATGGTTG [2d297]	0.531
TATCACTTGTCGTAAGACATTTGATGGTTGA [3d2217]	0.00686
TATCACTTGTCAAGACCTTTGGATGGGTTGA [3d1814]	0.762
TATCACTTTGTAAGACACTTTGGATGGGTTA [3d1477]	0.776
